{"source": "patent US20170247434A1", "about": "(DEUTSCHES KREBSFORSCHUNGSZENTRUM, published 2017)", "key": {"[1]": {"target": "T1, Norovirus GII.10 Vietnam026 virus-like particles (VLPs) (Norovirus GII.10 Vietnam026)", "T1 chain": "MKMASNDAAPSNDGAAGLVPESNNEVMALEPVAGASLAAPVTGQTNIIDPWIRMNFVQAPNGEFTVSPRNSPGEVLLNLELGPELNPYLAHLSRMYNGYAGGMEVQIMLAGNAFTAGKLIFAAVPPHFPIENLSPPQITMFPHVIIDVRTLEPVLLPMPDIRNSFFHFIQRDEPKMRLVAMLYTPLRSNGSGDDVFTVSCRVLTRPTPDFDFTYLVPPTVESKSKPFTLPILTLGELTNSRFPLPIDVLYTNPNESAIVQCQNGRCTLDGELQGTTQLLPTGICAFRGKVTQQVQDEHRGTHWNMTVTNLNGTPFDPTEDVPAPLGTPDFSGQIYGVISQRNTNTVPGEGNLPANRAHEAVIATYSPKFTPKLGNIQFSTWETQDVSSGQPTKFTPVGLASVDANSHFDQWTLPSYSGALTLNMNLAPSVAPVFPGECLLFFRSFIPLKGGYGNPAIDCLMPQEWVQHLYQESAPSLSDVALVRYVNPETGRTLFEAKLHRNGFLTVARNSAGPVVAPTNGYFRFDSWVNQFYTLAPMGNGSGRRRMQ"}, "[2]": {"target": "T2, Norovirus GII.4 NSW-2012 virus-like particles (VLPs) (Norovirus GII.4 NSW-2012, UniProt P54635 1-538)", "T2 chain": "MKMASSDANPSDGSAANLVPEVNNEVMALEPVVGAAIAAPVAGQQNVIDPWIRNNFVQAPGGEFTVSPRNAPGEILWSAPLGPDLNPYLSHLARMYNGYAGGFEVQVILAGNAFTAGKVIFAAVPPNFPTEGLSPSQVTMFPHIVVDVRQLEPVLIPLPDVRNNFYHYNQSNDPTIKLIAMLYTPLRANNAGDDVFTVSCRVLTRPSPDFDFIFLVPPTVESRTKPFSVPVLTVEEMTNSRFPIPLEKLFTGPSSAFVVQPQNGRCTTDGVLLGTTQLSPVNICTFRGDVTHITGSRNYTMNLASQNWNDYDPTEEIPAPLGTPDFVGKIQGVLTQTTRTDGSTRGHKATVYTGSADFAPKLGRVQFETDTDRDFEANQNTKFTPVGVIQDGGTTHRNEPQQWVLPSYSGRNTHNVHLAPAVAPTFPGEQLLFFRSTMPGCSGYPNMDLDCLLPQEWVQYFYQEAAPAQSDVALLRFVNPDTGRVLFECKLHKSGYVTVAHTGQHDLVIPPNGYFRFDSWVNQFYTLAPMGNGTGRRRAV"}, "[3]": {"target": "T3, Norovirus GI.1 Norwalk virus virus-like particles (VLPs) (Norovirus GI.1 Norwalk virus, UniProt Q83884 1-530)", "T3 construct": "also called GI.1 VLPs; the member of genogroup I included in this study", "T3 sequence": "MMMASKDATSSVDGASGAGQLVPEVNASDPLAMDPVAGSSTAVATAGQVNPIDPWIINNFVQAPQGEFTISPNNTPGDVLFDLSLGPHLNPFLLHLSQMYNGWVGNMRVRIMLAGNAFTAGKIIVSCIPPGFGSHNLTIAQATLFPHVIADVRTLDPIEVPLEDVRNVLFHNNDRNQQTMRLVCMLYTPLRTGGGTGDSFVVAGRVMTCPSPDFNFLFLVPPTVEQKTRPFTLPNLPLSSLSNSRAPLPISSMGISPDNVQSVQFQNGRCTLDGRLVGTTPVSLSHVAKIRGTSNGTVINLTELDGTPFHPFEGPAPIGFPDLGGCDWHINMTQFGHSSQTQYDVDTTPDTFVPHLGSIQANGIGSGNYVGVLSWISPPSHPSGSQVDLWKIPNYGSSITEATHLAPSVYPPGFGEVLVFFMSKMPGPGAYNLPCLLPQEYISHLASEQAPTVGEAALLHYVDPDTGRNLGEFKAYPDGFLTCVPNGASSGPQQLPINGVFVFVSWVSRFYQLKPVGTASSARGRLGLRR", "test": "direct ELISA; plates coated with VLPs; His-tagged nanobody serially diluted from ˜10 µM; anti-His HRP"}, "[4]": {"target": "T2, Norovirus GII.4 NSW-2012 virus-like …", "test": "direct ELISA; plates coated with 2 µg/ml VLPs; His-tagged nanobody serially diluted from ˜10 µM; anti-His HRP"}, "[5]": {"target": "T4, Norovirus GII.12 Hiro virus-like particles (VLPs) (Norovirus GII.12 Hiro)", "T4 construct": "also called GII.12 VLPs", "test": "direct ELISA; plates coated with 2 µg/ml VLPs; His-tagged nanobody serially diluted from ˜10 µM; anti-His HRP"}, "[6]": {"target": "T5, P domain of norovirus GII.10 (Vietnam026) (Norovirus GII.10 Vietnam026)", "T5 construct": "domain: P domain; also called GII.10 P domain; GII.10 P domains", "test": "direct ELISA; plates coated with 7 µg/ml GII.10 P domain; His-tagged nanobody serially diluted from ˜10 µM; anti-His HRP"}, "[7]": {"target": "T1, Norovirus GII.10 Vietnam026 virus-like …", "test": "direct ELISA; plates coated with 2 µg/ml VLPs; His-tagged nanobody serially diluted from ˜10 µM; anti-His HRP; detection limit OD 0.15"}}, "data": [{"binder": "Nano-85 (VHH, also called the Nanobody; single-domain antibody (VHH) of the invention) VHH: DVQLVESGGGLVQPGGSLRLSCAASGSIFSIYAMGWYRQAPGKQRELVASISSGGGTNYADSVKGRFTISGDNAKNTVYLQMNSLKPEDTAVYYCKREDYSAYAPPSGSRGRGTQVTVSS", "values": [{"measurement": "IC50", "setting": "[1]", "result": "< 10", "unit": "mg/L"}, {"measurement": "IC50", "setting": "[2]", "result": "< 10", "unit": "mg/L"}, {"measurement": "dilution at which VLPs were detected", "setting": "[3]", "result": 4000, "unit": "fold dilution"}, {"measurement": "dilution at which VLPs were detected", "setting": "[4]", "result": 32000, "unit": "fold dilution"}, {"measurement": "dilution at which VLPs were detected", "setting": "[5]", "result": 32000, "unit": "fold dilution"}, {"measurement": "dilution at which P domains were detected", "setting": "[6]", "result": 17800, "unit": "fold dilution"}, {"measurement": "dilution at which VLPs were detected", "setting": "[7]", "result": 64000, "unit": "fold dilution"}]}]}
